Laboratory results reported in the Immune Epitope Database (IEDB).
One block for each sequence: values may come before it.

Experiments:
HLA-B*45:06 = experiment: IEDB peptide-MHC binding, purified MHC/competitive/fluorescence; filed as Kd, often an IC50 or EC50 that approximates it; ≥ and ≤ were set here for values at or beyond the usual limits of such assays; settings: source organism: Zaire ebolavirus
HLA-A*31:01 = experiment: as above
HLA-B*39:01 = experiment: as above
HLA-B*15:42 = experiment: as above; settings: source organism: Zaire ebolavirus
HLA-B*57:01 [1] = experiment: as above
HLA-A*02:01 = experiment: as above
HLA-B*83:01 = experiment: as above; settings: source organism: Zaire ebolavirus
HLA-B*18:01 = experiment: as above
HLA-B*15:01 [2] = experiment: as above
HLA-B*46:01 = experiment: as above
HLA-B*51:01 = experiment: as above
HLA-B*27:03 = experiment: as above
HLA-B*15:17 = experiment: as above
HLA-A*03:01 [3] = experiment: IEDB peptide-MHC binding, purified MHC/direct/fluorescence; filed as Kd, often an IC50 or EC50 that approximates it; ≥ and ≤ were set here for values at or beyond the usual limits of such assays
HLA-A*24:03 = experiment: as above
HLA-A*02:03 = experiment: as above
HLA-A*02:16 [4] = experiment: as above
HLA-A*02:19 = experiment: as above
HLA-A*02:12 = experiment: as above
HLA-A*11:01 [5] = experiment: as above
HLA-B*08:01 = experiment: IEDB peptide-MHC binding, purified MHC/competitive/fluorescence; filed as Kd, often an IC50 or EC50 that approximates it; ≥ and ≤ were set here for values at or beyond the usual limits of such assays
HLA-A*69:01 = experiment: as above
HLA-B*35:01 = experiment: as above
HLA-A*26:01 = experiment: as above
HLA-B*58:01 [6] = experiment: IEDB peptide-MHC binding, purified MHC/direct/fluorescence; filed as Kd, often an IC50 or EC50 that approximates it; ≥ and ≤ were set here for values at or beyond the usual limits of such assays; settings: source organism: Reston ebolavirus - Reston
HLA-B*15:01 [7] = experiment: as above; settings: source organism: Reston ebolavirus - Reston
HLA-A*02:16 [8] = experiment: IEDB peptide-MHC binding, purified MHC/competitive/fluorescence; filed as Kd, often an IC50 or EC50 that approximates it; ≥ and ≤ were set here for values at or beyond the usual limits of such assays; settings: source organism: Mycobacterium tuberculosis C
HLA-C*03:03 = experiment: IEDB peptide-MHC binding, purified MHC/direct/fluorescence; filed as Kd, often an IC50 or EC50 that approximates it; ≥ and ≤ were set here for values at or beyond the usual limits of such assays
HLA-B*57:01 [9] = experiment: IEDB peptide-MHC binding, purified MHC/competitive/radioactivity; filed as Kd, often an IC50 or EC50 that approximates it; ≥ and ≤ were set here for values at or beyond the usual limits of such assays; settings: source organism: Dengue virus 2 Jamaica/1409/1983
HLA-B*58:01 [10] = experiment: as above; settings: source organism: Dengue virus 2 Jamaica/1409/1983
HLA-B*53:01 = experiment: as above; settings: source organism: Dengue virus 2 Jamaica/1409/1983
HLA-A*01:01 = experiment: as above; settings: source organism: Dengue virus 2 Jamaica/1409/1983
HLA-A*68:02 = experiment: IEDB peptide-MHC binding, purified MHC/direct/fluorescence; filed as Kd, often an IC50 or EC50 that approximates it; ≥ and ≤ were set here for values at or beyond the usual limits of such assays; settings: source organism: Limestone Canyon virus
HLA-A*02:11 = experiment: as above; settings: source organism: Limestone Canyon virus
HLA-A*29:02 = experiment: as above; settings: source organism: Limestone Canyon virus
HLA-B*07:02 = experiment: as above; settings: source organism: Orthohantavirus puumalaense
HLA-A*03:01 [11] = experiment: IEDB peptide-MHC binding, purified MHC/competitive/fluorescence; filed as Kd, often an IC50 or EC50 that approximates it; ≥ and ≤ were set here for values at or beyond the usual limits of such assays; settings: source organism: Escherichia coli 536
HLA-A*11:01 [12] = experiment: as above
HLA-C*07:02 = experiment: IEDB peptide-MHC binding, purified MHC/direct/fluorescence; filed as Kd, often an IC50 or EC50 that approximates it; ≥ and ≤ were set here for values at or beyond the usual limits of such assays; settings: source organism: Human herpesvirus 4 strain B95-8
[13] = source organism: Zaire ebolavirus
[14] = source organism: Escherichia coli
[15] = source organism: Reston ebolavirus
[16] = source organism: Mycobacterium tuberculosis C
[17] = source organism: Influenza A virus (A/Belfast/53582/2004(H3N?))
[18] = source organism: Orthohantavirus puumalaense
[19] = source organism: Limestone Canyon virus
[20] = source organism: Escherichia coli 536
[21] = source organism: Bacillus anthracis str. A0488
[22] = source organism: Mycobacterium tuberculosis variant bovis BCG str. Pasteur 1173P2
[23] = source organism: Vibrio vulnificus

Sequence: FTFDLTALK
Kd (HLA-B*45:06): ≥ 5000 nM
Kd (HLA-A*31:01; [13]): ≥ 20000 nM
Kd (HLA-B*39:01; [13]): ≥ 20000 nM
Kd (HLA-B*15:42): ≥ 5000 nM
Kd (HLA-B*57:01 [1]; [13]): ≥ 20000 nM
Kd (HLA-A*02:01; [13]): ≥ 20000 nM
Kd (HLA-B*83:01): ≥ 5000 nM
Kd (HLA-B*18:01; [13]): ≥ 20000 nM
Kd (HLA-B*15:01 [2]; [13]): ≥ 20000 nM
Kd (HLA-B*46:01; [13]): ≥ 20000 nM
Kd (HLA-B*51:01; [13]): ≥ 20000 nM
Kd (HLA-B*27:03; [13]): ≥ 20000 nM
Kd (HLA-B*15:17; [13]): ≥ 20000 nM
Kd (HLA-A*03:01 [3]; source organism: Ebola virus - Gabon (1994-1997)): 229 nM
Kd (HLA-A*24:03; [13]): ≥ 20000 nM
Kd (HLA-A*02:03; [13]): ≥ 20000 nM
Kd (HLA-A*02:16 [4]; [13]): ≥ 20000 nM
Kd (HLA-A*02:19; [13]): ≥ 20000 nM
Kd (HLA-A*02:12; [13]): ≥ 20000 nM

Sequence: KTALTGAMR
Kd (HLA-A*31:01; source organism: Yellow fever virus 1899/81): 16 nM
Kd (HLA-A*11:01 [5]; source organism: Yellow fever virus): 15.1 nM

Kd (HLA-B*39:01; [14]): 2.5 nM
Kd (HLA-B*08:01; [14]): 1900 nM
Kd (HLA-B*15:01 [2]; [14]): 354 nM
Sequence: HLAGYSGVL

Sequence: QAFEAGIDF
Kd (HLA-B*39:01; [15]): ≥ 20000 nM
Kd (HLA-B*57:01 [1]; [15]): ≥ 20000 nM
Kd (HLA-A*02:01; [15]): ≥ 20000 nM
Kd (HLA-A*69:01; [15]): ≥ 20000 nM
Kd (HLA-B*18:01; [15]): ≥ 20000 nM
Kd (HLA-B*35:01; [15]): 0.2 nM
Kd (HLA-B*51:01; [15]): ≥ 20000 nM
Kd (HLA-B*27:03; [15]): ≥ 20000 nM
Kd (HLA-A*26:01; [15]): ≥ 20000 nM
Kd (HLA-B*15:17; [15]): ≥ 20000 nM
Kd (HLA-B*58:01 [6]): 1030 nM
Kd (HLA-B*15:01 [7]): 76.6 nM

Sequence: TMDPSVRVL
Kd (HLA-A*02:01; [16]): 41.4 nM
Kd (HLA-A*02:16 [8]): 217 nM
Kd (HLA-C*03:03; [16]): 30 nM

Sequence: VVYKTGAIR
Kd (HLA-A*31:01; [16]): 59.4 nM
Kd (HLA-A*03:01 [3]; source organism: Mycobacterium leprae): 751 nM

Sequence: WILDRLFFK
Kd (HLA-A*31:01; source organism: Influenza A virus (A/Memphis/1/1978(H1N1))): 244 nM
Kd (HLA-A*03:01 [3]; [17]): 52.7 nM
Kd (HLA-A*11:01 [5]; [17]): 2.1 nM

Sequence: LTSSQQKADW
Kd (HLA-B*57:01 [9]): 100 nM
Kd (HLA-B*58:01 [10]): 59.2 nM
Kd (HLA-B*53:01): ≥ 21800 nM
Kd (HLA-A*01:01): 11000 nM

Sequence: SPVMGVIGF
Kd (HLA-B*39:01; [18]): ≥ 20000 nM
Kd (HLA-B*57:01 [1]; [18]): ≥ 20000 nM
Kd (HLA-A*02:01; [18]): ≥ 20000 nM
Kd (HLA-A*69:01; [18]): ≥ 20000 nM
Kd (HLA-B*18:01; [18]): ≥ 20000 nM
Kd (HLA-B*35:01; [18]): 0.5 nM
Kd (HLA-B*15:01 [2]; [18]): ≥ 20000 nM
Kd (HLA-B*46:01; [18]): ≥ 20000 nM
Kd (HLA-B*51:01; [18]): ≥ 20000 nM
Kd (HLA-B*27:03; [18]): ≥ 20000 nM
Kd (HLA-A*26:01; [18]): ≥ 20000 nM
Kd (HLA-B*15:17; [18]): ≥ 20000 nM
Kd (HLA-A*68:02): ≥ 20000 nM
Kd (HLA-A*03:01 [3]; [19]): ≥ 20000 nM
Kd (HLA-A*24:03; [19]): ≥ 20000 nM
Kd (HLA-A*02:11): ≥ 20000 nM
Kd (HLA-A*02:03; [19]): ≥ 20000 nM
Kd (HLA-A*02:16 [4]; [19]): ≥ 20000 nM
Kd (HLA-A*29:02): ≥ 20000 nM
Kd (HLA-B*07:02): 60.7 nM
Kd (HLA-A*02:19; [19]): ≥ 20000 nM
Kd (HLA-A*02:12; [19]): ≥ 20000 nM

Kd (HLA-A*31:01; [20]): 34.4 nM
Kd (HLA-A*03:01 [11]): 31 nM
Sequence: KIPATVIAR

Sequence: IVVDNTSAF
Kd (HLA-B*35:01; [21]): 0.4 nM
Kd (HLA-B*15:01 [2]; [21]): 70.4 nM

Sequence: SAFGGGNAF
Kd (HLA-B*46:01; [22]): 36.8 nM
Kd (HLA-C*03:03; [22]): ≤ 1 nM

Sequence: SSFSFGGFTFK
Kd (HLA-A*11:01 [12]; source organism: Influenza A virus H3N2): 0.5 nM

Sequence: FYNIPPMPL
Kd (HLA-C*03:03; source organism: Human herpesvirus 4 strain B95-8): 51 nM
Kd (HLA-C*07:02): 43 nM

Sequence: TVFSLLLFY
Kd (HLA-A*11:01 [12]; source organism: Yersinia pestis Nepal516): 500 nM

Kd (HLA-B*08:01; [20]): ≥ 20000 nM
Sequence: LIAVPHTKL

Sequence: SSGVFHSYK
Kd (HLA-A*31:01; source organism: Vibrio vulnificus YJ016): 3.5 nM
Kd (HLA-A*03:01 [3]; [23]): 9.7 nM
Kd (HLA-A*11:01 [5]; [23]): ≤ 1 nM
